The source of these data is patent publication US20260125649A1, “MEDIUM COMPOSITION AND METHOD FOR CULTURING MESENCHYMAL STEM CELLS” (ACADEMIA SINICA, priority 2018, published 2026).

What all share (assay type): cell-based, human
The subject of assay [1] is Oct4, Sox2, c-Myc and EpCAM. Nature of the assay: Flow cytometry of stemness markers in MSCs. The following applies: data not shown. The protocol: Cells were dissociated with 0.25% trypsin-EDTA (1 mM) (Invitrogen) for 3 min, washed with fluorescence-activated cell sorting buffer (FACS buffer, PBS containing 1% fetal bovine serum), fixed in 4% PFA, and then permeabilized with 0.1% Triton X-100 in PBS. Subsequently, cells were stained with Oct4, Sox2 or Nanog antibodies (1:100, ab 107156, Abcam, UK), washed and suspended in FACS buffer, and incubated with secondary antibody (1:200, Jackson ImmunoResearch) for 60 min at room temperature. Flow cytometry analysis was performed with a BD FACSCanto II flow cytometer (BD Biosciences, CA, USA).
We used human bone marrow-derived MSCs to study the effects of EpEX and first investigated whether EpEX promotes cell proliferation of MSCs. […] Next, we examined the effect of EpEX on cell cycle progression by flow cytometry with propidium iodide (PI) staining. […] EpCAM has been reported to enhance cell cycle progression through upregulation of the proto-oncogene c-Myc and cyclin A/E (Munz et al., 2004). Additionally, EpCAM is known to upregulate cyclin D1 via its direct interaction partner, FHL2, and downstream events such as phosphorylation of the retinoblastoma protein, Rb (Chaves-Perez et al., 2013). Therefore, we further asked whether EpEX can function to upregulate the expression of cell cycle regulators and pluripotency markers. […]
(In general: A flow cytometer gives signals particle by particle.)

A further assay concerns Oct4, Sox2, c-Myc, Lin28. Nature of the assay: qPCR of pluripotency factors in MSCs. The conditions noted are these: EpEX treatment. An excerpt:
The expression of let-7 was detected by qPCR. MSCs expressing EGFR shRNA, STAT3 shRNA or Lin28b shRNA were stimulated with EpEX. The expression of let-7 was detected by qPCR. […] Expression of pluripotency factors (Oct4, Sox2, c-Myc and Lin28) was examined by qPCR. MSCs were transfected with a let-7 mimetic, and then stimulated with EpEX. Protein levels of pluripotency factors (Oct4, Sox2, c-Myc, and Lin28) were examined by Western blotting.
Total RNA was extracted using TRI reagent (Invitrogen, CA, USA), and 5 μg of total RNA was reverse transcribed using oligo (dT) primer (Fermentas, Glen Burnie, MD, USA) with SuperScript III reverse transcriptase (Invitrogen). Quantitative real time RT-PCR (qPCR) was performed on cDNA using the Light Cycler 480 SYBR Green I Master kit (Roche Applied Science, Indianapolis, IN) and the LightCycler480 System (Roche Applied Science). The gene expression levels of each sample were normalized to the expression levels of glyceraldehyde 3-phosphate dehydrogenase (GAPDH).
On the technique in general: In qPCR the cycle at which signal appears reflects the starting amount.

Assay [2] has as its system HMGA2 binding to the promoters of Oct4 and Sox2. As to the kind of experiment: ChIP of HMGA2 binding to promoters of pluripotency genes. The following applies: EpEX treatment, data not shown. Here is the method:
MSCs were treated with EpEX (3 μg/mL), and the expression of HMGA2 was detected by immunofluorescence staining. […] To detect the binding of HMGA2 to Oct4 promoters, cross-linked DNA was isolated and then amplified with specific primers by qPCR. […] The gene expression of HMGA2 is detected by qPCR. MSCs were treated with let-7 mimetic and then treated with EpEX (3 μg/mL) for 12 h. The protein abundance of HMGA2 was examined by Western blotting.
We performed chromatin immunoprecipitation (ChIP) with the Pierce™ Magnetic ChIP Kit (Thermo Fisher Scientific), to according the manufacturer's instructions. In brief, the protein-DNA complexes were cross-linked with 1% formaldehyde and quenched by adding glycine to a final concentration of 200 mM. The chromatin complexes were sonicated to an average size of 250 bp by a MISONIX Sonicator 3000. For immunoprecipitation, 4 μg of […] (Novus) was incubated with protein G beads (Invitrogen) for 4 h. The immunocomplexes were further incubated with chromatin for another 4 h. […]
The immunoprecipitated DNA was recovered by a PCR purification kit (Thermo Fisher Scientific), and the purified DNA was subjected to real time quantitative PCR for further analysis. Immunoprecipitation/input was calculated for each gene and each gene was further normalized to the level of mouse β-actin promoter. […]

A further assay has as its system TACE. Nature of the assay: TACE activity assay in MSC lysates. The conditions noted are these: EpEX-stimulated MSCs. The protocol: (§1) FIG. 9. EpEX induces the phosphorylation and activity of TACE and γ-secretase. MSCs were stimulated by EpEX for the indicated times, and the activity of TACE and γ-secretase were detected. MSCs were stimulated by EpEX (3 μg/mL) for the indicated times. Western blot analysis was performed to detect the phosphorylation of TACE and Presenilin 2.
(§2) ADAM17 activity was measured using the InnoZyme ADAM17 activity kit (Calbiochem). In brief, cell lysates were harvested and loaded into a TACE antibody-coated plate. After 1 h incubation, the lysate was removed and the plate was washed twice. Substrate was added into each well for 5 h at 37° C. After incubation, the fluorescence signal of the reaction product was detected at excitation of 324 nm and emission of 405 nm. For the detection of γ-secretase activity, cell lysates were extracted and 500 μg protein was used. γ-secretase activity was detected by γ-secretase substrate (35 μM).

The test system of a further assay is γ-secretase. Nature of the assay: γ-secretase activity assay in MSC lysates. The following applies: EpEX-stimulated MSCs. The protocol:
as §1, §2

B1: EpEX: extracellular domain of human EpCAM, 265 amino acids in length (SEQ ID NO: 2) (protein, listed as Homo sapiens)
chain: MAPPQVLAFGLLLAAATATFAAAQEECVCENYKLAVNCFVNNNRQCQCTSVGAQNTVICSKLAAKCLVMKAEMNGSKLGRRAKPEGALQNNDGLYDPDCDESGLFKAKQCNGTSMCWCVNTAGVRRTDKDTEITCSERVRTYWIIIELKHKAREKPYDSKSLRTALQKEITTRYQLDPKFITSILYENNVITIDLVQNSSQKTQNDVDIADVAYYFEKDVKGESLFHSKKMDLTVNGEQLDLDPGQTLIYYVDEKAPEFSMQGLK
Turning to B1, the “protein levels of the stemness markers Oct4, Sox2, c-Myc and EpCAM” value in assay [1] was “increased”. Further, in the assay with Oct4, Sox2, c-Myc, Lin28, the “expression of the gene for Oct4” value was “can induce”. For the same molecule, in assay [2], the “HMGA2 binding to the promoters of Oct4 and Sox2” value was “can induce”. For the same molecule, the “activation of TACE” value in the assay with TACE is reported as “induced”. Also, in the assay on γ-secretase, the “activation of γ-secretase” value is on record as “induced”.
